{
  "source": "patent US20240398973A1",
  "about": "“ENGINEERED ANTIBODY COMPOUNDS AND CONJUGATES THEREOF” (Eli Lilly and Company, priority 2017, published 2024)",
  "key": {"[1]": {"target": "formyl peptide receptor 1 (FPR1) on primary human polymorphonuclear neutrophils (human) (UniProt P21462)", "experiment": "cell-based or functional assay"}, "[2]": {"target": "formyl peptide receptor 1 (FPR1) on primary human polymorphonuclear neutrophils (human) (UniProt P21462)", "experiment": "cell-based or functional assay", "remark": "listed apart in the source"}},
  "note": "Like-named read-outs stand apart in the source and are kept apart here.",
  "data": [
    {"substance": "Emibetuzumab-G4-fMLFK-HC-124C-157C-378C (antibody)", "values": [
      {"measurement": "PMN ROS production at 1 nM (percent relative to 1000 nM fMLF)", "setting": "[1]", "value": 1.7, "unit": "%"},
      {"measurement": "PMN ROS production at 3 nM (percent relative to 1000 nM fMLF)", "setting": "[1]", "value": 11.9, "unit": "%"},
      {"measurement": "PMN ROS production at 12 nM (percent relative to 1000 nM fMLF)", "setting": "[1]", "value": 26.9, "unit": "%"},
      {"measurement": "PMN ROS production at 30 nM (percent relative to 1000 nM fMLF)", "setting": "[1]", "value": 50, "unit": "%"},
      {"measurement": "PMN ROS production at 100 nM (percent relative to 1000 nM fMLF)", "setting": "[1]", "value": 63.6, "unit": "%"},
      {"measurement": "PMN ROS production at 300 nM (percent relative to 1000 nM fMLF)", "setting": "[1]", "value": 58.7, "unit": "%"},
      {"measurement": "PMN ROS production at 1000 nM (percent relative to 1000 nM fMLF)", "setting": "[1]", "value": 51.8, "unit": "%"}
    ]},
    {"substance": "Emibetuzumab-G4(PAA)-fMLFK-HC-124C-162C-378C (antibody)", "values": [
      {"measurement": "PMN ROS production at 1 nM (percent relative to 1000 nM fMLF)", "setting": "[1]", "value": 1.2, "unit": "%"},
      {"measurement": "PMN ROS production at 3 nM (percent relative to 1000 nM fMLF)", "setting": "[1]", "value": 6.1, "unit": "%"},
      {"measurement": "PMN ROS production at 12 nM (percent relative to 1000 nM fMLF)", "setting": "[1]", "value": 17.8, "unit": "%"},
      {"measurement": "PMN ROS production at 30 nM (percent relative to 1000 nM fMLF)", "setting": "[1]", "value": 38.4, "unit": "%"},
      {"measurement": "PMN ROS production at 100 nM (percent relative to 1000 nM fMLF)", "setting": "[1]", "value": 52.7, "unit": "%"},
      {"measurement": "PMN ROS production at 300 nM (percent relative to 1000 nM fMLF)", "setting": "[1]", "value": 54.2, "unit": "%"},
      {"measurement": "PMN ROS production at 1000 nM (percent relative to 1000 nM fMLF)", "setting": "[1]", "value": 42.3, "unit": "%"}
    ]},
    {"substance": "Tmab-G1-fMIFL-HC124C-378C-(PEG3) (antibody)", "values": [
      {"measurement": "EC50 of PMN ROS production", "setting": "[2]", "value": 31.3, "unit": "nM"}
    ]},
    {"substance": "Emibetuzumab-G4(PAA)-fMLFK-HC-124C-378C (antibody)", "values": [
      {"measurement": "PMN ROS production at 1 nM (percent relative to 1000 nM fMLF)", "setting": "[1]", "value": 0.6, "unit": "%"},
      {"measurement": "PMN ROS production at 3 nM (percent relative to 1000 nM fMLF)", "setting": "[1]", "value": 0.8, "unit": "%"},
      {"measurement": "PMN ROS production at 12 nM (percent relative to 1000 nM fMLF)", "setting": "[1]", "value": 0.9, "unit": "%"},
      {"measurement": "PMN ROS production at 30 nM (percent relative to 1000 nM fMLF)", "setting": "[1]", "value": 1.8, "unit": "%"},
      {"measurement": "PMN ROS production at 100 nM (percent relative to 1000 nM fMLF)", "setting": "[1]", "value": 3.4, "unit": "%"},
      {"measurement": "PMN ROS production at 300 nM (percent relative to 1000 nM fMLF)", "setting": "[1]", "value": 9.1, "unit": "%"},
      {"measurement": "PMN ROS production at 1000 nM (percent relative to 1000 nM fMLF)", "setting": "[1]", "value": 25.3, "unit": "%"},
      {"measurement": "PMN ROS production at 1 nM (percent relative to 1000 nM fMLF)", "setting": "[2]", "value": 27.4, "unit": "%"},
      {"measurement": "PMN ROS production at 2 nM (percent relative to 1000 nM fMLF)", "setting": "[2]", "value": 27.4, "unit": "%"},
      {"measurement": "PMN ROS production at 3.9 nM (percent relative to 1000 nM fMLF)", "setting": "[2]", "value": 26.5, "unit": "%"},
      {"measurement": "PMN ROS production at 7.8 nM (percent relative to 1000 nM fMLF)", "setting": "[2]", "value": 27.6, "unit": "%"},
      {"measurement": "PMN ROS production at 15.6 nM (percent relative to 1000 nM fMLF)", "setting": "[2]", "value": 28.3, "unit": "%"},
      {"measurement": "PMN ROS production at 31.3 nM (percent relative to 1000 nM fMLF)", "setting": "[2]", "value": 27.9, "unit": "%"},
      {"measurement": "PMN ROS production at 62.5 nM (percent relative to 1000 nM fMLF)", "setting": "[2]", "value": 27.7, "unit": "%"},
      {"measurement": "PMN ROS production at 125 nM (percent relative to 1000 nM fMLF)", "setting": "[2]", "value": 24.7, "unit": "%"},
      {"measurement": "PMN ROS production at 250 nM (percent relative to 1000 nM fMLF)", "setting": "[2]", "value": 29, "unit": "%"},
      {"measurement": "PMN ROS production at 500 nM (percent relative to 1000 nM fMLF)", "setting": "[2]", "value": 53.6, "unit": "%"},
      {"measurement": "PMN ROS production at 1000 nM (percent relative to 1000 nM fMLF)", "setting": "[2]", "value": 62.2, "unit": "%"}
    ]},
    {"substance": "Peptide-'183, formyl-Met-Leu-Phe-Lys(Mal-PEG12)-OH with hydrolyzed maleimido group (unconjugated peptide)", "values": [
      {"measurement": "EC50 of PMN ROS production", "setting": "[2]", "value": 103, "unit": "nM"},
      {"measurement": "PMN ROS production at 1 pM (percent relative to 10 uM fMLF)", "setting": "[2]", "value": 6.9, "unit": "%"},
      {"measurement": "PMN ROS production at 10 pM (percent relative to 10 uM fMLF)", "setting": "[2]", "value": 7.4, "unit": "%"},
      {"measurement": "PMN ROS production at 100 pM (percent relative to 10 uM fMLF)", "setting": "[2]", "value": 7.5, "unit": "%"},
      {"measurement": "PMN ROS production at 1 nM (percent relative to 10 uM fMLF)", "setting": "[2]", "value": 8.8, "unit": "%"},
      {"measurement": "PMN ROS production at 10 nM (percent relative to 3000 nM fMLF)", "setting": "[2]", "value": 3.6, "unit": "%"},
      {"measurement": "PMN ROS production at 10 nM (percent relative to 10 uM fMLF)", "setting": "[2]", "value": 31.3, "unit": "%"},
      {"measurement": "PMN ROS production at 30 nM (percent relative to 3000 nM fMLF)", "setting": "[2]", "value": 12.2, "unit": "%"},
      {"measurement": "PMN ROS production at 100 nM (percent relative to 3000 nM fMLF)", "setting": "[2]", "value": 49.9, "unit": "%"},
      {"measurement": "PMN ROS production at 100 nM (percent relative to 10 uM fMLF)", "setting": "[2]", "value": 76.6, "unit": "%"},
      {"measurement": "PMN ROS production at 300 nM (percent relative to 3000 nM fMLF)", "setting": "[2]", "value": 76.2, "unit": "%"},
      {"measurement": "PMN ROS production at 1 µM (percent relative to 10 uM fMLF)", "setting": "[2]", "value": 94, "unit": "%"},
      {"measurement": "PMN ROS production at 1000 nM (percent relative to 3000 nM fMLF)", "setting": "[2]", "value": 94.3, "unit": "%"},
      {"measurement": "PMN ROS production at 3000 nM (percent relative to 3000 nM fMLF)", "setting": "[2]", "value": 99.5, "unit": "%"},
      {"measurement": "PMN ROS production at 10 µM (percent relative to 10 uM fMLF)", "setting": "[2]", "value": 107, "unit": "%"},
      {"measurement": "PMN ROS production at 10000 nM (percent relative to 3000 nM fMLF)", "setting": "[2]", "value": 89.1, "unit": "%"},
      {"measurement": "PMN migration at 1 nM (percent relative to 100 nM fMLF)", "setting": "[2]", "value": 150, "unit": "%"},
      {"measurement": "PMN migration at 3 nM (percent relative to 100 nM fMLF)", "setting": "[2]", "value": 167, "unit": "%"},
      {"measurement": "PMN migration at 10 nM (percent relative to 100 nM fMLF)", "setting": "[2]", "value": 145, "unit": "%"},
      {"measurement": "PMN migration at 30 nM (percent relative to 100 nM fMLF)", "setting": "[2]", "value": 118, "unit": "%"},
      {"measurement": "PMN migration at 100 nM (percent relative to 100 nM fMLF)", "setting": "[2]", "value": 84.2, "unit": "%"},
      {"measurement": "PMN migration at 300 nM (percent relative to 100 nM fMLF)", "setting": "[2]", "value": 50.4, "unit": "%"},
      {"measurement": "PMN migration at 1000 nM (percent relative to 100 nM fMLF)", "setting": "[2]", "value": 33.6, "unit": "%"}
    ]}
  ]
}
